Source: the PETadex activity labels

B1: unnamed (protein)
chain: MKITAHKTARGVANFAKASLFVAALAVTSLANAQYQKGPDPTVSALERNGSFATRSTTVSRLSASGFGGGTIYYPTASGSYGAIAVSPGFTAYQSSISWIGERLSSHGFVVITIDTITTSDQPESRGNQLKAALDKVVSLSRTSSSPLYNKVDASRLGVAGHSMGGGGTLAAARDNPSYKAAVPLAPWHTTKSWSRVSVPTLIIGGSTDAIAGVALHSIPFYTSLPSSTKKAYMELSGEGHFYPQLPSNYPIVGRYMISWFKRFMDSDTRYSPFLCGAQHQADLRLFGPFSDYRENCPY
B2: unnamed (protein)
chain: MNSHRASRLVRAALAAGALLLSAAASAQTNPYQRGPNPTASSLEASRGPFSVRSFTVSRPSGYGAGTVYYPTNAGGTVGAIAIVPGFTARQSSINWWGPRLASHGFVVITIDTNSTLDQPSSRSSQQMAALRQVATLSGTSSSPIYNKVDTSRLGVMGWSMGGGGSLISARNNPSLKAAAPQAPWNSSTNFSSVTVPTLIIACENDTIAPVNSHASPFYNSMSRNPKQFLEINGGSHSCANSGNSNQALLGKKGVAWMKRFMDNDTRYTSFACSNPNSTRVSDFRVASCS
B3: unnamed (protein)
chain: MTLTSTLRRQTRTTATATVLAAAAALALCAAPASAQQTGPNPTSSSLNATSGPFAVSSVSVVAPTGFGGGTIYYPTTAGQYGVVAISPGFTATESSIAWLGRRMATHGFVVVTINTLTTLDQPASRATQLMAALNHVVNSASSTVRSRVDPNRRAVAGHSMGGGGALIAAENNPGLKAALPLTPWNLTTNFSDVQVPTLIVGADGDTVAPAAIHARPFYASLSSSVRKAYAELNFSTHFTPNTTNTPIGRYGVTWMKRFVDGDTRYSTFLCGAEHNAYNTALVFERYSQNCPY
B4: unnamed (protein)
chain: MKTSRTRRLALAAAALLLSVAAQAQSSNPYQRGPDPTAASLEASSGPFAVSTTTVSSASGFGGGTIYYPTNTEGPFAAIAVVPGFTGTQSSISWWGPRLASHGFVVITIDTNSTFDQPDSRATQLMAALNYVVSQSNTSSSPIYGKVDSNRLGVMGHSMGGGGTLIAARDNPTLKAAIPLAPWNSSTNFSSVTVPTLIIACENDTVAPVSSHASPFYNSIPSSTDKAYLEINGGDHFCANSGNSNKAILGKYGVAWMKRFLDNDTRYDPFLCGAPHQADGSAISEYRDNCPY
B5: unnamed (protein)
chain: MSAADRMCPFRTLLMLLGLSMMARPTRASMRRRGRHSSITTGDSMTHIAIGLRHWAQVAVLLASVAMSALAAAQNNPYAKGPDRTTADLEAELGSFAVASASIPRANASGFGGGTIYYPTASGSCGAISISPGYTATQVNIAWLGPRLASRGFVVITIDTFTTSDLPDSRATQLQAALNQAVSLSQTAGHVIYGKVDARRLAVAGDSLGGGGALLAGLNNPMLKAAVGLVPYSYTQNFSTEQVPTLMIGGQKDTTATPSKHAIAFYNSIPSTTDKAYMELAGADHYLPHRTQYFPVIGRYMIAWYKRFVDNDTRYSPFLCGAIQQADVANTALVSKYLQNCSY
B6: unnamed (protein)
chain: MTIRPFVRNAVLAAGLLVGAASAQAQVAVFQENFSNGLGAFTASGTVSTGTGAARLQGCYGCTDGQIVSSAISTQGFTNLSLSFDRVTSGLYIGESGTAEFSVDGTNWTVVESTRVTSPGRVTFDLPASAAGQAALRLRFRIDARLSSETYTVDNVELTGTVGDTGGGTPGANPYAKGPDPTVALLEAGTGPFTYTRTTVSRTAASGYGGGTIYHPTGVAGPFGAIAISPGYTAYQSSISWLGERLASHGFVVITIDTFTTSDQPSSRATQLMAALRQLVAYGNTSSHPIYGKVDPNRLGVMGHSMGGGGSLIAARDNPSLKAAVPLTPWNTSSNFTAVQVPTLVVGCEADTVAPVAQHASPFYNNIPSTTKKAYLELANASHFCPVTGNGYTRLLGKYGVAWMKRFVDNDTRYSPFLCGAPHRADLSNGQLSAYRENCPY
B7: unnamed (protein)
chain: MKSTQGSKFALSLLTAGTLLFSMSALGFNAPDPDPQPDPDPCEGDCGYTRGPDPTTSLLEASSGPYSVRTDSVSSRVSGFSGGTIYYPTGTSGRMGAIVVAPGFLSPESSISWWGPRLASHGFVVITVQINSGYDQPASRQAQMDAALDHVISESNSSSSPISGMVDSSRLGAMGWSMGGGGALRMAAGDRLSAAIPLAPWHSGRDNFDQIRTPTLIFACENDSVAPVRSHASPFYNDIPNSTSKAFFEINGGSHTCANGGRSNGDLLGRIGVSWMKRHIDQDTRYNQFLCGPNHESDGDISEYRGTCPL

Substrate: BHET
Settings: 120 h

| Protein | plate clearing |
| --- | --- |
| B1 | not clears the plate |
| B2 | not clears the plate |
| B3 | not clears the plate |
| B4 | clears the plate (z > 3 vs empty vector) |
| B5 | not clears the plate |
| B6 | clears the plate (z > 3 vs empty vector) |
| B7 | not clears the plate |
